Our source for the Kd, Ka and EC50 values is patent JP2011115175A.

Test [1] deals with ニワトリリゾチーム (chicken lysozyme) (chicken) (UniProt P00698). As to the kind of experiment: fluorescence quench titration; 200 nM Fab titrated with lysozyme in solution.
Test [2] shares this target. As to the kind of experiment: legend of Figure 7 (antigen binding graph, fluorescence quench titration).
The target in test [3] is CD28Ig (human) (UniProt P10747). Description: ELISA on CD28Ig-coated plates, detected with anti-human kappa conjugate. On the technique in general: An ELISA detects its analyte on a solid surface through an enzyme-linked reagent.
Test [4] addresses ヒトグルタミン酸デカルボキシラーゼ65kDaアイソフォーム (human glutamic acid decarboxylase, GAD65) (human) (UniProt Q05329). Description: immunoprecipitation of 35S-labelled GAD65 with Protein G-Sepharose; midpoint read by eye.
The target in test [5] is CD28Ig (human) (UniProt P10747). As to the kind of experiment: legend of Figure 11 (antigen binding graph, ELISA).

UniProt P00698, sequence (P00698 19-147 limits assumed): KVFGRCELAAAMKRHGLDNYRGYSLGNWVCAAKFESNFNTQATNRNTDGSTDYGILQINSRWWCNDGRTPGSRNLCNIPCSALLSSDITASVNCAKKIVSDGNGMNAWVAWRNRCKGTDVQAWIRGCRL
UniProt Q05329, sequence (Q05329 whole entry): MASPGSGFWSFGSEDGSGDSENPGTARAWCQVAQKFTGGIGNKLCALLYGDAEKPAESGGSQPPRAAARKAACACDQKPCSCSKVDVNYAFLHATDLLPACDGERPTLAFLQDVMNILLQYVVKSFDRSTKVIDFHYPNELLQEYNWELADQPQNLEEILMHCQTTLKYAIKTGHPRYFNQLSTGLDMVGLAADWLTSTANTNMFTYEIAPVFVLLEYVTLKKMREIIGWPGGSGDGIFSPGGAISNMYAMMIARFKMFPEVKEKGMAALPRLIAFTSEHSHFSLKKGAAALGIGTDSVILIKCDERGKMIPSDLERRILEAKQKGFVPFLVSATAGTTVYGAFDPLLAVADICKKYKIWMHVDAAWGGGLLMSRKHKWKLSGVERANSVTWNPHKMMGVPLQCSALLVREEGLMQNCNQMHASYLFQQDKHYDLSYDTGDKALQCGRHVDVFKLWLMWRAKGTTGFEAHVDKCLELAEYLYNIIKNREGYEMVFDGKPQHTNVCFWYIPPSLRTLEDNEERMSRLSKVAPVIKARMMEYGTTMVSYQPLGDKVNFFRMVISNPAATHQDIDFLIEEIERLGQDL

As for “ヒト化D1.3 Fab (humanized D1.3 Fab, anti-chicken lysozyme)”, in test [1], the dissociation constant Kd (commonly the free concentration of one partner at which half of the binding sites on the other are occupied at equilibrium, for simple one-to-one binding) was 23 nM. Also, the Ka in test [2] was above 1e+08 M⁻¹.

For the molecule “マウス9.3 Fab (Fab of mouse 9.3 variable domains and human constant domains)”, the EC50 (in general, the concentration giving half of the maximal effect) with CD28Ig (human) [3] amounted to 20 nM.

B1: マウスNGAD65 Fabフラグメント (mouse NGAD65 variable domains and constant domains) (Fab, from another filing, V domains shown)
VH: QVQLQQPGAELVKPGASVKMSCKASGYRFSSYNMHWVKQTPGQGLEWIGAIYPRSGDTSYNQKFKGKATLTADKSSSTAYMQLGSLTSEDSAVYYCVRSYDYDAPFAFWGQGTLVTVSA
VL: VLTQTPLSLPVSLGDQASISCRSSQSLEHNNGNTYLNWYLQKPGQSPQLLIYRVSNRFSGGLDRFSGSGSGTDFTLKISRVEAEDLGVYFCLQVTHVPFTFGSGTKLEIKR
B1 came in with an EC50 in test [4] of 0.00036 nM.

B2: ヒト化抗ヒトCD28(Hu9.3)Fabフラグメント (Fab, from another filing, V domains shown)
VH: EVQLVQSGGGLVQPGGSLRLSCAGSGFTFSDYGVHWVRQAPGKGLEWVSAIWAGGGTNYASSVMGRFTISRDNAKNSLYLQMNSLRAEDMAVYYCARDKGYSYYYSMDYWGQGTLVTVSS
VL: DIVMTQSPDSLAVSLGERATINCRASESVEYYVTSLMAWYQQKPGQPPKLLIYAASNVESGVPDRFSGSGSGTNFSLTISSLQAEDVAVYYCQQSRKVPYTFGQGTKLEIKR
For B2, the EC50 in the test with CD28Ig (human) [3] is 630 nM. Besides, the Ka in the test with CD28Ig (human) [5] is above 1e+06 M⁻¹.
